Results on six molecules are retold here after patent US7811569 (INSTITUT PASTEUR, dated 2010).

Sequences and labels used below:
B1: recombinant MSP-3194-257 (other)
chain: HERAKNAYQKANQAVLKAKEASSYDYILGWEFGGGVPEHKKEENMLSHLYVSSKDKENISKENE
notes: also called panning antigen
B2: RAM2 Fab-ΔpIII (Fab, V domains shown)
VH: QVQLQESGGGLVKPGGSLKLSCAASGFTFSSYGMSWVRQTPDKRLEWVATISSGGSYTYYPDSVKGRFTISRDNAKNTLYLQMSSLKSEDTAMYYCARLYYGYRYYFDYWGQGTMVTVSS
VL: DIQLTQSPSSLSASIGDRVTITCQASQDITNSLNWYQQRPGQAPKLLIYDAFTLKTGVPSRFSGRGSGTSFTIAINSFQAEDIGTYFCQQSHRVPFTFGGGTRVEIKR
notes: Human Fab made in E. coli from pFAB73H; VH is joined to human gamma 1 CH1 (residues 118 to 230), then a spacer with a trypsin site and truncated f1 phage pIII (ΔpIII); The light chain is VK plus human kappa constant domain; also called Fab-ΔpIII RAM2; RAM2 in the Fab-ΔpIII format
B3: RAM2 IgG1 (antibody, V domains shown)
VH: B2 VH
VL: B2 VL
notes: Intact human IgG1 kappa, allotype G1m(a,z), made in CHO cells
B4: RAM3 Fab-ΔpIII (Fab, V domains shown)
VH: QVQLVQSGGGVVQPGRSLRLSCAASGFTFSSYAMHWVRQAPGKGLEWVAVISYDGSNKYYADSVKGRFTISRDNSKNTLYLQMNSLRAEDKAVYYCARDSGGIAARLGGYFDLWGRGTTVTVSS
VL: DIRMTQSPSFLSASVGDRVTITCRASQGISSYLAWYQQKPGKAPKLLIYAASTLQSGVPSRFSGSGSGTEFTLTISSLQPEDFATYYCQQGPTFGGGTKVEIKR
notes: Human Fab made in E. coli from pFAB73H; VH is joined to human gamma 1 CH1 (residues 118 to 230), then a spacer with a trypsin site and truncated f1 phage pIII (ΔpIII); The light chain is VK plus human kappa constant domain; also called Fab-ΔpIII RAM3; RAM3 in the Fab-ΔpIII format
B5: RAM1 Fab-ΔpIII (Fab, V domains shown)
VH: QVQLVQSGGGVVQPGRSLRLSCAASGFTFSSYAMHWVRQAPGKGLEWVAVISYDGSNKYYADSVKGRFTISRDNSKNTLYLQMSSLRAEDTAVYYCVKGASSWSTGTLVTVSS
VL: DIVMMQSPATLSASVGDRVTITCRASQSISSWLAWYQQKPGKAPNLLIYKASSLESGVPSRFSGSGSGTEFTLTISSLQPDDFATYYCQQYKSFPYTFGQGTRLEIKR
notes: Human Fab made in E. coli from pFAB73H; VH is joined to human gamma 1 CH1 (residues 118 to 230 of the H chain), then a spacer with a trypsin cleavage site and truncated f1 phage protein pIII (ΔpIII); The light chain is VK plus human kappa constant domain; also called Fab-ΔpIII RAM1; RAM1 in the Fab-ΔpIII format
B6: RAM1 IgG1 (antibody, V domains shown)
VH: B5 VH
VL: B5 VL
notes: Intact human IgG1 kappa, allotype G1m(a,z), made in CHO cells from pLNOH2 and pLNOK; also called IgG1 anti-MSP3; RAM1 in the IgG1 format

The test “RAM2 Fab-ΔpIII” has as its target B2. Nature of the test: antigen competition ELISA; soluble antigen 4 nM to 1250 nM against coated MSP-3194-257.
The test “recombinant MSP-3194-257” deals with B1. Nature of the test: direct ELISA, coated recombinant antigen.
The target of test [1] is T1, native MSP-3 antigen of Plasmodium falciparum clone 3D7 schizonts and merozoites (Plasmodium falciparum).
T1 construct: whole, on cells; The motif 220-230 is also present in MSP-6; also called native malaria antigen; parasite proteins
Nature of the test: flow cytometry on ethanol-fixed permeabilized schizonts, FITC anti-human Fab.
Experimental: The gating was placed to include the majority of the infected cells. The gating was used for the histograms described below.
Parasites were then washed in PBS with 1% BSA, incubated over night with antibody (Fab-ΔpIII or IgG1), washed twice with PBS supplemented with 1% BSA and incubated for 30 minutes with FITC-conjugated goat anti-human Fab (Sigma F5512) diluted 1:25. Cells were analyzed in a Coulter EPICS-2 flow cytometer. Hib-CP specific antibody was used as control in corresponding concentrations.

Test [2] has as its target T2, synthetic peptide MSP-3211-237 (Plasmodium falciparum).
T2 construct: also called MSP-3b
T2 peptide: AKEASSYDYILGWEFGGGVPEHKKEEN
Briefly: ELISA on synthetic peptides.

For test [3], the target named is T3, synthetic peptide MSP-3190-217 (Plasmodium falciparum).
T3 peptide: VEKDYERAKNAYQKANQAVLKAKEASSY
Briefly: ELISA on synthetic peptides.

B1: the binding result with RAM2 Fab-ΔpIII is “binds”.
Regarding B2, in the test with recombinant MSP-3194-257, the binding result is reported as “binds”. Also, in test [1], the “percent of events under the bar M1” value came to 28%.
Take B3: the binding result in test [2] and in test [3] was “binds” each time.
Regarding B4, the “percent of events under the bar M1” value in test [1] came to 4%.
The same measure, in the same setting: next, B5: 76%; B6: 47%.
